Reference: publication PMC5461033 (The Journal of Cell Biology, 2017)
One block for each binder: values may come before it.

Target: T1, FLAG-Sec16 (1,101–1,600 aa) (human, UniProt O15027-4 1101-1600)
T1 sequence: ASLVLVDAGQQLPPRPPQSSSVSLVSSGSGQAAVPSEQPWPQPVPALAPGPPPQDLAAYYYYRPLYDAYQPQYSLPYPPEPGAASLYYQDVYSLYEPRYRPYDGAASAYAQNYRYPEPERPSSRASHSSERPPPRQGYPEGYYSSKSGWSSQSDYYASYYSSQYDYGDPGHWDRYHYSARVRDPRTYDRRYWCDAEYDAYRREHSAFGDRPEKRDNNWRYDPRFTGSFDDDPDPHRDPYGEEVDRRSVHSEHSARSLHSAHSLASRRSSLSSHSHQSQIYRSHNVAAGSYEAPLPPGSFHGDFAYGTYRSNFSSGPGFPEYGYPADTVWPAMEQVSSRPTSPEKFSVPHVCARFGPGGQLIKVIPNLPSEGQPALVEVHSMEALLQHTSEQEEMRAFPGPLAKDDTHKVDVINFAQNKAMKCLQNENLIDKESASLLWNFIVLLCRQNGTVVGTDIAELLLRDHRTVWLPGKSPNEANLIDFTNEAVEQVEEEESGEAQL
Test: pull-down

- binding result: binds
B1: GST-tagged TANGO1-PRD (1,651–1,907 aa) (domain or fragment)
chain: NTQNPPRRGPLSQNGSFGPSPVSGGECSPPLTVEPPVRPLSATLNRRDMPRSEFGSVDGPLPHPRWSAEASGKPSPSDPGSGTATMMNSSSRGSSPTRVLDEGKVNMAPKGPPPFPGVPLMSTPMGGPVPPPIRYGPPPQLCGPFGPRPLPPPFGPGMRPPLGLREFAPGVPPGRRDLPLHPRGFLPGHAPFRPLGSLGPREYFIPGTRLPPPTHGPQEYPPPPAVRDLLPSGSRDEPPPASQSTSQDCSQALKQSP

- binding result: binds
B2: GST-tagged TANGO1-PRDΔ60 (1,651–1,847 aa) (domain or fragment)
chain: NTQNPPRRGPLSQNGSFGPSPVSGGECSPPLTVEPPVRPLSATLNRRDMPRSEFGSVDGPLPHPRWSAEASGKPSPSDPGSGTATMMNSSSRGSSPTRVLDEGKVNMAPKGPPPFPGVPLMSTPMGGPVPPPIRYGPPPQLCGPFGPRPLPPPFGPGMRPPLGLREFAPGVPPGRRDLPLHPRGFLPGHAPFRPLGS
